Reference: patent US20120164670

Experiments:
[1] = molecular target: DBC1, Q8N163
[2] = molecular target: Fleur de Lys peptide (BIOMOL)
[3] = molecular target: T1, H3K9ac substrate (TARK(ac)STG)
T1 chain: TARKSTG

Chain of DBC1, Q8N163 (Q8N163 whole entry, looked up): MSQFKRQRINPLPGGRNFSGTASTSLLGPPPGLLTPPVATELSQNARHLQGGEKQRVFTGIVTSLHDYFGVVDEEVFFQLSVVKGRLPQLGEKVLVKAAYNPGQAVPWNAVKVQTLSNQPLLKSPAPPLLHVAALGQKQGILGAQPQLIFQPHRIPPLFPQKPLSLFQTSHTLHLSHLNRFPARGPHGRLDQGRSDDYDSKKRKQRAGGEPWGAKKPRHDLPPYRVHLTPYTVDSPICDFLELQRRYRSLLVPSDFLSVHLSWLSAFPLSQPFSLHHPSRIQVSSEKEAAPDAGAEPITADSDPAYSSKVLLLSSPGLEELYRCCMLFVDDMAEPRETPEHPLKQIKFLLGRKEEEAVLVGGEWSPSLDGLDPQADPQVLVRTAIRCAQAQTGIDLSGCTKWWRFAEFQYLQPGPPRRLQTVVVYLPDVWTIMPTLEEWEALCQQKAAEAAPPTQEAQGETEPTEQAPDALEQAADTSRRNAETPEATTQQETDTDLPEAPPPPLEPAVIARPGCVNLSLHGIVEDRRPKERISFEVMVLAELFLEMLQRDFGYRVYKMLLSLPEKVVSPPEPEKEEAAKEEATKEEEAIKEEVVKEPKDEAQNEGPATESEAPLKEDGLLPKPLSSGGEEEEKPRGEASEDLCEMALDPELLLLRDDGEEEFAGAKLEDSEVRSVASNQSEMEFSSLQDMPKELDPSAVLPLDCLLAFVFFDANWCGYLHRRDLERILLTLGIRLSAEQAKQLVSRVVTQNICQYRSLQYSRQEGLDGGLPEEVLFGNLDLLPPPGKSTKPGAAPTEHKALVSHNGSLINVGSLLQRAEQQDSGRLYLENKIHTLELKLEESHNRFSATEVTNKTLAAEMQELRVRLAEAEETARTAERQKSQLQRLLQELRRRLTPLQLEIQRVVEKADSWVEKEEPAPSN

B1: full-length human SIRT1 enzyme (protein)
chain: ADEAALALQPGGSPSAAGADREAASSPAGEPLRKRPRRDGPGLERSPGEPGGAAPEREVPAAARGCPGAAAAALWREAEAEAAAAGGEQEAQATAAAGEGDNGPGLQGPSREPPLADNLYDEDDDDEGEEEEEAAAAAIGYRDNLLFGDEIITNGFHSCESDEEDRASHASSSDWTPRPRIGPYTFVQQHLMIGTDPRTILKDLLPETIPPPELDDMTLWQIVINILSEPPKRKKRKDINTIEDAVKLLQECKKIIVLTGAGVSVSCGIPDFRSRDGIYARLAVDFPDLPDPQAMFDIEYFRKDPRPFFKFAKEIYPGQFQPSLCHKFIALSDKEGKLLRNYTQNIDTLEQVAGIQRIIQCHGSFATASCLICKYKVDCEAVRGDIFNQVVPRCPRCPADEPLAIMKPEIVFFGENLPEQFHRAMKYDKDEVDLLIVIGSSLKVRPVALIPSSIPHEVPQILINREPLPHLHFDVELLGDCDVIINELCHRLGGEYAKLCCNPVKLSEITEKPPRTQKELAYLSELPPTPLHVSEDSSSPERTSPPDSSVIVTLLDQAAKSNDDLDVSESKGCMEEKPQEVQTSRNVESIAEQMENPDLKNVGSSTGEKNERTSVAGTVRKCWPNRVAKEQISRRLDGNQYLFLPPNRYIFHGAEVYSDSEDDVLSSSSCGSNSDSGTCQSPSLEEPMEDESEIEEFYNGLEDEPDVPERAGGAGFGTDGDDQEAINEAISVKQEVTDMNYPSNKS
Question: What does the source list for B1?
Answer: SIRT1 activity (PNC1-OPT assay, dose titration of DBC1, H3K9-L peptide substrate) [1]: DBC1 concentration inversely correlates with SIRT1 activity; Km (PNC1-OPT nicotinamide assay, SIRT1 deacetylation) [2]: ˜130.2 uM; Km (stated in the kit protocol for the SIRT1 deacetylation reaction) [3]: final concentration=50 uM (Km)
